Experimental findings from the supplement of paper PMC10567573 are described below.

First the molecules themselves.
B1: NFE2L1 (parent)
chain: TLDGYGIHPKSIDLDNYFTARRLL
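Also: lentivirally expressed fusions sorted by FACS into six bins by GFP to DsRed ratio, PSI derived from sequencing read proportions per bin multiplied by bin number.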

Variants of B1 are the subject of the series. The series can be described thus: protein stability index of a GFP-peptide fusion (GPS, HEK-293T) (PSI 1-6); higher = more stable. The conditions noted are these: c terminus: a fixed tail appended.
For TLDGYLIHPKSIDLDNYFTARRLL, the protein stability index amounted to 1.59.

In the case of TLDGYTIHPKSIDLDNYFTARRLL, the protein stability index was 1.83.

Take TLDGYMIHPKSIDLDNYFTARRLL: the protein stability index turned out to be 1.83.

With TLDGYSIHPKSIDLDNYFTARRLL, the protein stability index was 1.62.

Take TLDGYFIHPKSIDLDNYFTARRLL: the protein stability index was found to be 2.69.

As for TLDGYVIHPKSIDLDNYFTARRLL, the protein stability index amounted to 2.25.

Regarding TLDGYCIHPKSIDLDNYFTARRLL, the protein stability index was 1.48.

Take TLDGYRIHPKSIDLDNYFTARRLL: the protein stability index came out at 1.87.

TLDGYAIHPKSIDLDNYFTARRLL: the protein stability index worked out at 2.26.

Regarding TLDGYIIHPKSIDLDNYFTARRLL, the protein stability index came out at 1.58.

Turning to TLDGYHIHPKSIDLDNYFTARRLL, the protein stability index worked out at 1.97.

As for TLDGYWIHPKSIDLDNYFTARRLL, the protein stability index worked out at 1.54.

With TLDGYQIHPKSIDLDNYFTARRLL, the protein stability index was found to be 1.94.

Regarding TLDGYDIHPKSIDLDNYFTARRLL, the protein stability index amounted to 1.54.

With TLDGYKIHPKSIDLDNYFTARRLL, the protein stability index was 1.91.

Turning to TLDGYYIHPKSIDLDNYFTARRLL, the protein stability index was 1.71.

Take TLDGYPIHPKSIDLDNYFTARRLL: the protein stability index was found to be 1.76.

TLDGYNIHPKSIDLDNYFTARRLL: the protein stability index stood at 2.21.

Regarding TLDGYEIHPKSIDLDNYFTARRLL, the protein stability index is 2.02.

Turning to TLDGYGIDPKSIDLDNYFTARRLL, the protein stability index worked out at 2.02.

As for TLDGYGIEPKSIDLDNYFTARRLL, the protein stability index amounted to 2.42.

TLDGYGILPKSIDLDNYFTARRLL: the protein stability index was found to be 1.67.

On to TLDGYGIFPKSIDLDNYFTARRLL, for which the protein stability index stood at 1.95.

As for TLDGYGICPKSIDLDNYFTARRLL, the protein stability index is 1.87.

TLDGYGIGPKSIDLDNYFTARRLL: the protein stability index turned out to be 1.75.

For the variant TLDGYGIKPKSIDLDNYFTARRLL, the protein stability index came out at 2.07.

Regarding TLDGYGIAPKSIDLDNYFTARRLL, the protein stability index stood at 2.22.

As for TLDGYGIIPKSIDLDNYFTARRLL, the protein stability index was found to be 1.98.

For TLRGYGIHPKSIDLDNYFTARRLL, the protein stability index came out at 2.33.

As to TLSGYGIHPKSIDLDNYFTARRLL, the protein stability index was 1.71.

Consider TLPGYGIHPKSIDLDNYFTARRLL, for which the protein stability index came out at 1.62.

On to TLQGYGIHPKSIDLDNYFTARRLL, for which the protein stability index amounted to 1.79.

In the case of TLYGYGIHPKSIDLDNYFTARRLL, the protein stability index came out at 2.25.

Regarding TLTGYGIHPKSIDLDNYFTARRLL, the protein stability index worked out at 1.61.

For the variant TLNGYGIHPKSIDLDNYFTARRLL, the protein stability index amounted to 2.33.

Consider TLVGYGIHPKSIDLDNYFTARRLL, for which the protein stability index was determined as 1.62.

Take TLWGYGIHPKSIDLDNYFTARRLL: the protein stability index was determined as 1.47.

TLDGPGIHPKSIDLDNYFTARRLL: the protein stability index came out at 2.13.

For the variant TLDGIGIHPKSIDLDNYFTARRLL, the protein stability index was determined as 2.21.

TLDGMGIHPKSIDLDNYFTARRLL: the protein stability index was found to be 2.5.

In the case of TLDGCGIHPKSIDLDNYFTARRLL, the protein stability index came to 2.01.

TLDGLGIHPKSIDLDNYFTARRLL: the protein stability index turned out to be 2.3.

Turning to TLDGTGIHPKSIDLDNYFTARRLL, the protein stability index was determined as 2.13.

TLDGKGIHPKSIDLDNYFTARRLL: the protein stability index was determined as 1.85.

Regarding TLDGNGIHPKSIDLDNYFTARRLL, the protein stability index turned out to be 2.25.

As for TLDGGGIHPKSIDLDNYFTARRLL, the protein stability index amounted to 2.43.

In the case of TLDGEGIHPKSIDLDNYFTARRLL, the protein stability index was 2.21.

For TLDGAGIHPKSIDLDNYFTARRLL, the protein stability index was 2.67.

Consider TLDGFGIHPKSIDLDNYFTARRLL, for which the protein stability index turned out to be 1.89.

For the variant TLDGVGIHPKSIDLDNYFTARRLL, the protein stability index came out at 2.42.

For the variant TLDGHGIHPKSIDLDNYFTARRLL, the protein stability index stood at 2.12.

Consider TLDGRGIHPKSIDLDNYFTARRLL, for which the protein stability index worked out at 1.76.

In the case of TLDGQGIHPKSIDLDNYFTARRLL, the protein stability index is 1.48.

Take TLDGSGIHPKSIDLDNYFTARRLL: the protein stability index turned out to be 2.05.

TLDGDGIHPKSIDLDNYFTARRLL: the protein stability index came to 2.8.

In the case of TLDGWGIHPKSIDLDNYFTARRLL, the protein stability index amounted to 1.97.

Consider TLDGYGTHPKSIDLDNYFTARRLL, for which the protein stability index came to 1.78.

As for TLDGYGEHPKSIDLDNYFTARRLL, the protein stability index was 2.27.

For TLDGYGDHPKSIDLDNYFTARRLL, the protein stability index was found to be 2.4.

With TLDGYGRHPKSIDLDNYFTARRLL, the protein stability index was 2.04.

For TLDGYGWHPKSIDLDNYFTARRLL, the protein stability index is 1.67.

In the case of TLDGYGSHPKSIDLDNYFTARRLL, the protein stability index was determined as 1.91.

As to TLDGYGFHPKSIDLDNYFTARRLL, the protein stability index was 1.62.

In the case of TLDGYGAHPKSIDLDNYFTARRLL, the protein stability index was found to be 2.01.

As for TLDGYGHHPKSIDLDNYFTARRLL, the protein stability index came out at 2.85.

For the variant TLDGYGVHPKSIDLDNYFTARRLL, the protein stability index amounted to 1.68.

As to TLDGYGMHPKSIDLDNYFTARRLL, the protein stability index turned out to be 1.75.

TLDGYGPHPKSIDLDNYFTARRLL: the protein stability index is 2.12.

Turning to TLDGYGCHPKSIDLDNYFTARRLL, the protein stability index was 2.4.

Consider TLDGYGYHPKSIDLDNYFTARRLL, for which the protein stability index worked out at 1.9.

With TLDGYGLHPKSIDLDNYFTARRLL, the protein stability index came to 1.7.

Consider TLDGYGNHPKSIDLDNYFTARRLL, for which the protein stability index is 2.1.

On to TLDGYGQHPKSIDLDNYFTARRLL, for which the protein stability index is 2.35.

On to TLDGYGGHPKSIDLDNYFTARRLL, for which the protein stability index is 1.92.

Take TLDGYGKHPKSIDLDNYFTARRLL: the protein stability index was 1.75.

With TLDAYGIHPKSIDLDNYFTARRLL, the protein stability index is 1.73.

For the variant TLDVYGIHPKSIDLDNYFTARRLL, the protein stability index came to 1.22.

As for TLDCYGIHPKSIDLDNYFTARRLL, the protein stability index was 1.43.

On to TLDFYGIHPKSIDLDNYFTARRLL, for which the protein stability index was 1.46.

On to TLDLYGIHPKSIDLDNYFTARRLL, for which the protein stability index is 1.27.

As for TLDEYGIHPKSIDLDNYFTARRLL, the protein stability index came out at 1.47.

For TLDMYGIHPKSIDLDNYFTARRLL, the protein stability index came to 2.09.

TLDNYGIHPKSIDLDNYFTARRLL: the protein stability index amounted to 2.03.

With TLDKYGIHPKSIDLDNYFTARRLL, the protein stability index is 1.53.

Turning to TLDSYGIHPKSIDLDNYFTARRLL, the protein stability index was 2.13.

Regarding TLDIYGIHPKSIDLDNYFTARRLL, the protein stability index came out at 1.65.

For the variant TLDYYGIHPKSIDLDNYFTARRLL, the protein stability index worked out at 1.5.

Regarding TLDWYGIHPKSIDLDNYFTARRLL, the protein stability index was found to be 1.91.

As for TLDHYGIHPKSIDLDNYFTARRLL, the protein stability index worked out at 1.62.

As for TLDPYGIHPKSIDLDNYFTARRLL, the protein stability index turned out to be 1.63.

With TLDTYGIHPKSIDLDNYFTARRLL, the protein stability index was 1.55.

TLDRYGIHPKSIDLDNYFTARRLL: the protein stability index worked out at 1.95.

Take TLDDYGIHPKSIDLDNYFTARRLL: the protein stability index came to 2.57.

TLDQYGIHPKSIDLDNYFTARRLL: the protein stability index was 1.75.
